Consider 1 molecule from article PMC11329518.

Common to all, as to assay: fluorescence polarisation
(Polarisation of emitted light reports the rotation of a fluorescent probe.)

Experiment [1] concerns the target 5'FAM-labeled peptide H3 (1-21).
The target in experiment [2] is 5'FAM-labeled peptide H3K9me1.
The target in experiment [3] is 5'FAM-labeled peptide H3K9me2.

In general, Kd refers to the concentration at which binding is half-saturated. A higher Kd goes with lower affinity.

B1: GST-ARID1-His (natural protein)
chain: MAGWSMVADEDAVDYSKTPKSLDANRSPESVNPESTGFEKKIKELISLFRPLLDSFLAEFCSADGFLPLPAMTGEGRTVDLFNLFLNVTHKGGFDAVSENGSWDEVVQESGLESYDSASAKLIYVKYLDAFGRWLNRVVAGDTDVSSVELSGISDALVARLNGFLSEVKKKYELRKGRPAKELGAELKWFISKTKRRYDKHHVGKESASNDAVKEFQGSKLAERRLEQIMILESVTQECSSPGKRKRECPLETLKWLSDVAKDPCDPSLGIVPDRSEWVSYGSEEPWKQLLLFRASRTNNDSACEKTWQKVQKMHPCLYDDSAGASYNLRERLSYEDYKRGKTGNGSDIGSSDEEDRPCALVGSKFQAKVPEWTGITPESDSKWLGTRIWPLTKEQTKANLLIERDRIGKGRQDPCGCHNPGSIECVKFHITAKRDKLKLELGPAFYMWCFDVMGECTLQYWTDLELKKIKSLMSSPPSLSPAFIHQAKMILPSKSRGKIVSYFYNVTLLQYRASQSRITPHDIDSDTDQIFLRATENENPAPEANTFQKPALLSPNKKRCR
With B1, the Kd in experiment [1] turned out to be 4.73 µM; in experiment [2] it was 21.2 µM; in experiment [3] it was 40.5 µM.
